Measurements as given in the RNAGym collection of RNA variant scans (doi:10.1073/pnas.2313332121).

B1: TPR t1 (parent)
chain: GACCAAUCUGCCCUCAGAGCUCGAGAACAUCUUCGGAUGCAGAGGAGGCAGGCUUCGGUGGCGCGAUAGCGCCAACGUCCUCAACCUCCAAUGCAUCCCACCACAUGAUGAUGCCUGAAGAGCCUUGGUUUUUUG

Variants of: B1
Assay: polymerase ribozyme fitness, log enrichment relative to wild type (log ratio); higher = more active; in vitro selection for triplet polymerase activity
In short: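 To select mutant libraries of each subunit of a heterodimeric triplet polymerase ribozyme, built by PCR and transcribed, each was annealed with a biotinylated primer, partner subunit and triplets, then incubated frozen at −7 °C. Extended constructs were gel-excised, captured on streptavidin beads and amplified by RT-PCR, in one round carried out in triplicate. Illumina sequencing of input and output libraries kept genotypes with ≥10 input reads and ≥1 read per output. Fitness is the base-2 logarithm of genotype enrichment relative to wild-type enrichment, from inverse-variance-weighted replicate averages.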

| Variant | polymerase ribozyme fitness (log ratio) |
| --- | --- |
| U7C C20A G39C G61A | -3.85 |
| A6U G36A | -0.596 |
| U78C U92C U96C U106A | -1.75 |
| C34G G117C C124A | -6.44 |
| A26G G60U C97U | -2.92 |
| U59G U96G A111C U131A U133A | -1.54 |
| C12U U30G G63U G113C G117C | -7.89 |
| C62G G93U | -2.74 |
| A2C C3A U9A C20U G63C G120U | -1.07 |
| C72U C82G G113U | -4.51 |
| A83U G128C | -2.32 |
| C40U C56U A74U U78C C89G | -2.81 |
| U7G A46C C97U G120U G127U | 0.436 |
| A83U G120U U129C | -1.36 |
| C73U C94U G113U | -3.64 |
| A29G U32C G42U G47C | -4.18 |
| C13U G47U G135U | -2.07 |
| G63U U92A U96A G113C | -3.99 |
| A27U U81C U132C | -4.09 |
| U38G G42U G61U C73U C115U | -3.73 |
| G17A C20A C31G G36U A46C C124A | -7.12 |
| A5C A37G C88A | -3.94 |
| A6U G93C | -0.28 |
| A26U A83U | -2.58 |

| Variant | polymerase ribozyme fitness (log ratio) |
| --- | --- |
| A2G G52C G60U | 0.0795 |
| C15U U54G | -1.23 |
| C12G G65C U67G A95G A108U A119U C123U | -5.89 |
| U54C C101G | -1 |
| C31G G35C A43G G110C | -7.68 |
| C3G C88G U112G | -2.52 |
| C88A A95U C102A G120A | -3.23 |
| C3U U9A | 0.706 |
| G23U A37G C94G | -6.35 |
| G63U A111C | -1.67 |
| U21A U92C U116C A119G | 0.265 |
| A37U C98A | -5.84 |
| C4G G69A | -2.97 |
| C13G C85A U112C | -1.28 |
| C15G C22A G52C A119G | -5.02 |
| U54A U87A G117U | -2.44 |
| G63U C104A | -2.5 |
| G39A G57U G71U U78G C123A | -0.79 |
| U87G C123A | 0.557 |
| G71U C115U | -1.41 |
| C11A A119C C124G | -4.46 |
| C56A C62U C124U | 1.48 |
| G60A U112A | 1.13 |
| G35A A66C G117U | -5.98 |

| Variant | polymerase ribozyme fitness (log ratio) |
| --- | --- |
| C4U C34A G71C A83G C98U U112A | -5.16 |
| C73U A119U | -0.348 |
| C13U G42U G48A U129A | -2.82 |
| A46U C56A C72G G93A G120A C123U | -4.15 |
| C12A C88U G110C | -4.61 |
| C12A C123A | 0.369 |
| A43U U59G U96A A105U A121C | -4.79 |
| G35C G61C C64A C123G | -6.08 |
| C4G C101A | -2.61 |
| U9G A18C C56G C72A G120A U130A | -2.29 |
| C49G G69U G117A | -1.13 |
| A16G C70U C76A | -2.84 |
| C40A C114A | -3.51 |
| C62G C99U A121G | -4.31 |
| C11G G36U G47U G63A U78G | -2.93 |
| G60A C123A | 0.222 |
| C13A G19U C82A U87G G120A | -3.21 |
| G17A G48U G57C G60A | -2.98 |
| C115A | -0.202 |
| G71C C79A | -1.86 |
| C11A G52C C56A | -2.98 |
| C53U U87A C97A | -5.45 |
| C13U G71U U78C | 0.0986 |
| U7G A46C A68C C70U C97U G120U G127U | -5.43 |

| Variant | polymerase ribozyme fitness (log ratio) |
| --- | --- |
| C8A A84U | 0.295 |
| C13U C101U | -0.0534 |
| A29G C73A | -1.67 |
| C79A C89A A118G | -3.86 |
| C49A C101G | -2.23 |
| C82G C97A C124A U125G | -5.83 |
| G42U G93U A118G | -2.35 |
| G35A G71A | -4.49 |
| C8U C76G A90C C101U | -1.52 |
| G48A U112C U133G | 0.699 |
| G61U G117C | -2.09 |
| C98G C124U | -5.51 |
| G52U C70U U78A C101G G128A | -3.89 |
| C40U G52A | -0.72 |
| C70U A75U G77U A83U U106A C114U C123G U133G | -6.34 |
| G60U C89U U92A A118U | -2.14 |
| G44A C70U | -1.67 |
| C13A A50U | -3.1 |
| G69A U130A U133G | -2.25 |
| G71A U116C G117U | -2.83 |
| A41C C56U C94A | -3 |
| U14G G44C G71U U78A | -3.39 |
| C11G U126A | -0.924 |
| A43U G63A A103U G117C U131A | -6.74 |

| Variant | polymerase ribozyme fitness (log ratio) |
| --- | --- |
| C62A G113U C114G | -4.19 |
| A6U C8A A37G G61U C98A | -3.75 |
| G61C A84C | -1.86 |
| G36C U112A | -1.13 |
| C13G G42A C85U C124G | -1.82 |
| A16U C114U | -4.86 |
| G60C C85U U96A U106C A119U | -4.09 |
| C97U U112C A121C | 1.3 |
| U38G G60U | -0.261 |
| G17U C72U | -3.14 |
| U81A U129C | -1.37 |
| C34U C62U | -5.32 |
| C72G C88G C115U | -3.24 |
| G19U A43C | -3.38 |
| A18U C82A U92A | -4.27 |
| G57U A119U G120U | -0.267 |
| G17U A18U G35C C72G G77U A103U U112G | -6.95 |
| A16G U106A | -0.109 |
| A46C C62U U106G | -2.88 |
| G61C G63A | -4.78 |
| C53A C64U U78C C104A | -0.646 |
| C28U A46G U129G | -2.5 |
| A18C C20U C88G G110C | -4.72 |
| C4U G44A C73U A75U C94A | -2.78 |

| Variant | polymerase ribozyme fitness (log ratio) |
| --- | --- |
| C49U U106A U116G G128A | -5.82 |
| G52U G69A C94A C104U A118G | -5.65 |
| C11G G117U | -1.54 |
| C11G C22G C53G C70U C82U | -4.01 |
| C11G A41C | -0.501 |
| C11A C49U C73A C86U A95G U106G C123U | -0.375 |
| C3A C76G G93A C115G | -5.76 |
| U14G G113C | -4.24 |
| A18C A95C G128U | -5.8 |
| U78G C97G | -4.29 |
| C101G G110U | -4.98 |
| C97A A111G | -5.96 |
| G17A U38A U59G C115U G117U | -3.04 |
| C22A A75U U78A U116G | -4.77 |
| A29G A50U C73A | -2.36 |
| C53U G61A A105C | -2.22 |
| G42A G44C C56G G135U | -3.31 |
| G69C U81G C82U C104U U112G | -2.5 |
| C12A C15A C70A C72A G110U | -6.17 |
| A24G G36C C49A G63U | -4.77 |
| A5G C15U G48U C104U C124A | -0.12 |
| C56A U78A | 0.796 |
| U14G A27C C85A U109A C124A | -6.27 |
| G58U U81A C124A | 1.33 |

| Variant | polymerase ribozyme fitness (log ratio) |
| --- | --- |
| C8G C115A U130G | 1.67 |
| G110A A121U | 0.16 |
| U9A G10C C79A C101G | -2.55 |
| U38C G42C U78A A84C | -3.16 |
| C3U C86G G113C | -3.51 |
| C73A C98A | -4.94 |
| U96A U131C | -1.19 |
| G71C G127C | -2.16 |
| U81A G110A | -2.37 |
| G48A U106A | -0.42 |
| U32C G42U | -2.17 |
| C80G A119U | -2.85 |
| C15U G71A C79U | -1.53 |
| C11U U21A A27G C70G A105G | -5.92 |
| G57A C76U A90U | -1.14 |
| G36U U55C G93A | -2.49 |
| C4U C13A A46U G52U C73A | -4.74 |
| G61A C97A C124U | -3.09 |
| C40U C104A A119G | -1.84 |
| C89U A105G | -2.76 |
| A5U C11G C94U C104A G110C | -5.6 |
| U54C C97G C123U | -2.86 |
| G61U G63A | -4.12 |
